Measured values from the supplement of paper PMC9170038.

Assays:
MS2 coat protein [1] = test: apparent KD of MS2 coat protein; higher = weaker reporter binding; conditions: Eterna round: R101
Experimental: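 RNA-MaP: designed FMN/MS2 RNA switches (84 nt design region) are transcribed on-chip within common flanks and titrated with SNAP-549-labelled MS2 coat protein (about 1-3000 nM) in 100 mM Tris pH 7.5, 80 mM KCl, 4 mM MgCl2, without or with 200 uM FMN. Median apparent KD per design; activation ratio = KD,OFF / KD,ON.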

MS2 coat protein [2] = test: apparent KD of MS2 coat protein, switch OFF state (with FMN for OFF switches, without FMN for ON switches); designed switch direction (-1 OFF switch, 1 ON switch): 1; higher = weaker reporter binding; conditions: FMN input: 0 or 200 uM; Eterna round: R93 (includes R88 designs)
Outline: (§1)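 Apparent KD stands for the median, per design, of fits to normalised cluster binding curves. The curves came from titrating on-chip-transcribed RNA switches on Illumina sequencing clusters with SNAP-549-labelled MS2 coat protein, twofold from 0.7 or 1.5 nM to 3 µM. Buffer was 100 mM Tris-HCl pH 7.5, 80 mM KCl, 4 mM MgCl2, without or with constant ligand.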

MS2 coat protein [3] = test: apparent KD of MS2 coat protein, switch ON state; designed switch direction (-1 OFF switch, 1 ON switch): 1; higher = weaker reporter binding; conditions: FMN input: 0 or 200 uM; Eterna round: R93 (includes R88 designs)
Outline: as §1

Sequence | apparent KD of MS2 coat protein (MS2 coat protein [1]; input ligand: FMN 200 uM) | apparent KD of MS2 coat protein (MS2 coat protein [1]; input ligand: none) | apparent KD of MS2 coat protein (MS2 coat protein [2]) | apparent KD of MS2 coat protein (MS2 coat protein [3])
GGCAGCUUUCAGAAGGGAGUGCGAUAAUCGCACUCAGGAUAUGAGGAUCACCCAUAUCAUGCUGCCACUGAGGCAAAGCCUCAG [#SharedSequence - IEx NG 3-1] (puzzle (switch architecture): Inverted Exclusion NG 1) | 13.3 nM | 11 nM |  | 
GUACAUGAGGAUCACCCAUGUCACAUAACGUCCGAGGAUACCAGAAGGGCAGACGUUACGACGGUGCAGGAUAUGGGCUCCUAA [Beceanbe] (puzzle (switch architecture): Inverted Same State NG 3) | 37.2 nM | 56.6 nM |  | 
AAGUGAAAUCAGAAGGCGUGGACGAAACGUCCACGAGGAUAUGAGGAUCACCCAUGUCAGGUCAGCCUGCAAAGCAGGCUGACC [#SharedSequence - IExNG1: 6-1] (puzzle (switch architecture): Inverted Exclusion NG 1) | 259 nM | 66.2 nM |  | 
AAUAAUUCUUAAGGAUAUCAGUGGCAAAGCCACUGAGAAGGUGAGGAUCACCCACCUACGUGACGCUGGAAACAGCGUCACGAA [#SharedSequence ExNG1 - 30] (puzzle (switch architecture): Exclusion NG 1) | 23.1 nM | 16.2 nM |  | 
GGAGAUACAUGAGGAUCACCCAUGUAGGAUAUAUAGUAUAUAUAUGGCGAAAGCCAUAUAUAUAUAUAGAAGGGCGUACACACC [#LOL-14] (puzzle (switch architecture): Small Loop Exclusion NG 3) | 7.28 nM | 8.22 nM |  | 
AAAUAACUUGAAGGAUAUGACCCUCGAGGUGACUAAAAGUCACCUCGAGGGUCAGAAGGUCGAGGAUCACCCGACCAAAUAAAU [#SharedSequence SLExNG1: 10] (puzzle (switch architecture): Small Loop Exclusion NG 1) | 11.2 nM | 10.9 nM |  | 
AGGAGAAAUGUAGGAUAUGGGCGGGCGUAUGGGCAAAGCGCAUACGCCCGCCCAGAAGGACAUGAGGAUCACCCAUGUUUCCCU [#Lowering the energy 2] (puzzle (switch architecture): Small Loop Exclusion NG 1) | 13.8 nM | 11.7 nM |  | 
CCGACGACUUAGAAGGCACUCGCAUAAUGCGAGUGAGGAUAUGAGGAUCACCCAUAUCAACGUCGGAGUCACCGAAACGGUGAC [#SharedSequence - IEx NG 4-2] (puzzle (switch architecture): Inverted Exclusion NG 1) | 7.98 nM | 8.45 nM |  | 
UGGUACUAGGGAGGAUAUGGGAAGAUACAUGAGGAUCACCCAUGUUUAAGAAUGCCGAGAGGCAACUAGAAGGCCCUAGUACCU (puzzle (switch architecture): Same State NG 2) | 18.9 nM | 437 nM |  | 
AAAGAUUUUUAAGGAUAUGACUCCGAAACGGAGUCAGAAGGUGAGGAUCACCCACCUAGCUCAGCGUCGAAAGACGCUGAGCAA [#SharedSequence ExNG1 - 24] (puzzle (switch architecture): Exclusion NG 1) | 11 nM | 8.75 nM |  | 
AUAUGAUUAAGAGGAUAUAUACAACAUGAGGAUCACCCAUGUACCCAUGUAGUAGAAGGUUUAUUUUUAUAUAAUAAUAUAAUU [AstrosLoopssng1#12] (puzzle (switch architecture): Small Loop Same State NG 1) | 61.4 nM | 82.9 nM |  | 
AAUUAAAUCCUAGGAUAUCAGUGGCAAAGCCACUGAGAAGGAGGAUCACCCUUUCAAACGUGACGCUGGAAACAGCGUCACGAA [#SharedSequence - ExNG1-18] (puzzle (switch architecture): Exclusion NG 1) | 444 nM | 699 nM |  | 
AAAUAACUCGAAGGAUAUGACCCUCGAGGUGACUAAAAGUCACCUCGAGGGUCAGAAGGUCGAGGAUCACCCGACCUAGUGAAA [#SharedSequence SLExNG1: 8] (puzzle (switch architecture): Small Loop Exclusion NG 1) | 65.9 nM | 10.3 nM |  | 
UUUAAUAUUAUAGGAUAUGGAUACGAUACGUAUCCAGAAGGGUGAUUAUAAUAUAAUCUAUACAUGAGGAUCACCCAUGUUUAU [AtrosYaY8] (puzzle (switch architecture): Same State NG 1) | 84.8 nM | 205 nM |  | 
GGAUAGGACAGAGGAUAUACGUGCUAGAGAUACUAGCAAAAUUUCCUCACAUGAGGAUCACCCAUGUAGAAGGCUGUCCUAUCU (puzzle (switch architecture): Exclusion NG 2) | 395 nM | 18.6 nM |  | 
UGAUAGGACAGAGGAUAUACGUGCUAGAGAUACUAGCAAAAUUUCCUCACAUGAGGAUCACCCAUGUAGAAGGCUGUCCUAUCU [#PyrimidineMS2Turnoff - Eli xng 2.01 rotated] (puzzle (switch architecture): Exclusion NG 2) | 533 nM | 16.5 nM |  | 
AAAUAAAUGACUGAGGAUAUAUCGAAGAAGACAUGAGGAUCACCCAUGUAAUAAUAAAAAGGGUGGUAGAAGGUAGUCAACAAAC [Mod 9 of Pariah 4 by Hyphema in Round 1] |  |  | 376 nM | 331 nM
UACAGGAAGAGAGAGGAUAUCCAAAGGAAAACAUGAGGAUCACCCAUGUAAAAGGUAGGAAAUUGGGAGAAGGCUCAAGAGAGAG [salish99-ss2-090] |  |  | 32 nM | 21 nM

Sequence | apparent KD of MS2 coat protein (MS2 coat protein [1]; input ligand: FMN 200 uM) | apparent KD of MS2 coat protein (MS2 coat protein [1]; input ligand: none) | apparent KD of MS2 coat protein (MS2 coat protein [2]) | apparent KD of MS2 coat protein (MS2 coat protein [3])
GAAAAACAUGAGGAUCACCCAUGUGUAAACAUGGGAGGAUAUACAAAGACGUAAGUCAAAGUAGAAGGCCUAAGAG [Garnet 37] |  |  | 15.3 nM | 128 nM
AAAAGACAUGAGGAUCACCCAUGUCAAGACAUAGGAGGAUAUGUCGUGAAAAAAGACUUGGCAGAAGGCCUUUGUC [SS1 - 47] |  |  | 16.1 nM | 14.3 nM
GAGGACAUAGUAUAGGAUAUAUGAAUAAUUACAUGAGGAUCACCCAUGUCCAUUUAUAUGGGAACAUAGAAGGGUGGUAGUUAUC [SameState2 Malc#33] |  |  | 202 nM | 102 nM
AUGGUCAAGUGUGAGGAUAUCCAUGCUCCCACAUGAGGAUCACCCAUGUCUUAAAGGGCGUAAAGGGAGAAGGUACGAACGCCAC [Edatxein] |  |  | 78.3 nM | 40.7 nM
AAAGAAAAACUAGAGGAUAUCUGAGUGGUAACAUGAGGAUCACCCAUGUGAAGAAAGGAACAUGAGGAGAAGGCUAGAAGAAAAA [JL Nando mod 13] |  |  | 44.2 nM | 23.8 nM
AAAAAACAUGAGGAUCACCCAUGUAAAAAAAUGGGAGGAUAUACAAAGACGAAAGUCAAAGUAGAAGGCCUGAAAG [same state 3] |  |  | 58.4 nM | 21.7 nM
AAAUAAAUGACUGAGGAUAUAUCGAUGGGUACAUGAGGAUCACCCAUGUGUUAAUAAAAAGGGUGGUAGAAGGUAGUCAACAAAC [Mod 16 of Pariah 4 by Hyphema in Round 1] |  |  | 748 nM | 238 nM
AAAUUACAUGAGGAUCACCCAUGUAGCGACGUUACAGGAUAUGUGGGUGAAAAUAGCAUGACAGAAGGGUACCGUA [SameState1 Malc#39] |  |  | 60.8 nM | 77 nM
CGAAGACAUGAGGAUCACCCAUGUGGGAUUAUGGGAGGAUAUACAAAGACGAGAGUCAGAGUAGAAGGCCUAGGAG [salish99-ss1-126(!)] |  |  | 47.1 nM | 28.7 nM
AAAGAAAAACUAGAGGAUAUUUGAGUGGUAACAUGAGGAUCACCCAUGUGAAGAAAAGAACAUGAGGAGAAGGCUAGAAGAAAAA [JL Nando mod 15] |  |  | 42.3 nM | 23.1 nM
AUAUAUAUAAGGUAGGAUAUCCAAUAAUCCACAUGAGGAUCACCCAUGUAAAGAAAGAAAAAGUGGGAGAAGGACCAUAUAUAUA [77%, More Tesla, 7] |  |  | 34 nM | 17.6 nM
ACAAAACAUGAGGAUCACCCAUGUGAGAACAUGAAAGGAUAUACUAGGACGAGAGUCAAUGUAGAAGGUUCUAGAA [SS - 1] |  |  | 39 nM | 34.6 nM
AGAAAUAAAAGACAGGAUAUCCAAAAGAAAACAUGAGGAUCACCCAUGUAAAAGAAAAUAAAAUGGGAGAAGGGUCAAAAUAAAG [Topaz 2] |  |  | 36.6 nM | 11 nM
AACAGACAUGAGGAUCACCCAUGUAGAAUUAUGGGAGGAUAUACAAAGACGAGAGUCAGAGUAGAAGGCCUAGGAU [salish99-ss1-166] |  |  | 63.4 nM | 22.8 nM
AUUUAACAUGAGGAUCACCCAUGUAGGAAUACUGCAGGAUAUCGACACGAAAAUACGUGUCGAGAAGGGCAUGAAA [SS1 MT 25] |  |  | 22 nM | 13.8 nM
AAAACUACAGAUCAGGAUAUGUUUGGGUAAACAUGAGGAUCACCCAUGUGCACCCGAUAAACAACACAGAAGGGAUAACGUGGGA [Soensole] |  |  | 23.7 nM | 12.7 nM
AAAGAAAAACUAGAGGAUAUUUGAGUGGUAACAUGAGGAUCACCCAUGUGAAGAAAGGAGCAUGAGGAGAAGGCUAGAAGAAAAA [JL Nando mod 23] |  |  | 68.7 nM | 21.5 nM
